What was measured:
[1] = target: T1, Human CDCP1 (CUB domain containing protein 1) on DU-145 cells (human, UniProt Q9H5V8 30-836); experiment: cell-based or functional assay
T1 sequence: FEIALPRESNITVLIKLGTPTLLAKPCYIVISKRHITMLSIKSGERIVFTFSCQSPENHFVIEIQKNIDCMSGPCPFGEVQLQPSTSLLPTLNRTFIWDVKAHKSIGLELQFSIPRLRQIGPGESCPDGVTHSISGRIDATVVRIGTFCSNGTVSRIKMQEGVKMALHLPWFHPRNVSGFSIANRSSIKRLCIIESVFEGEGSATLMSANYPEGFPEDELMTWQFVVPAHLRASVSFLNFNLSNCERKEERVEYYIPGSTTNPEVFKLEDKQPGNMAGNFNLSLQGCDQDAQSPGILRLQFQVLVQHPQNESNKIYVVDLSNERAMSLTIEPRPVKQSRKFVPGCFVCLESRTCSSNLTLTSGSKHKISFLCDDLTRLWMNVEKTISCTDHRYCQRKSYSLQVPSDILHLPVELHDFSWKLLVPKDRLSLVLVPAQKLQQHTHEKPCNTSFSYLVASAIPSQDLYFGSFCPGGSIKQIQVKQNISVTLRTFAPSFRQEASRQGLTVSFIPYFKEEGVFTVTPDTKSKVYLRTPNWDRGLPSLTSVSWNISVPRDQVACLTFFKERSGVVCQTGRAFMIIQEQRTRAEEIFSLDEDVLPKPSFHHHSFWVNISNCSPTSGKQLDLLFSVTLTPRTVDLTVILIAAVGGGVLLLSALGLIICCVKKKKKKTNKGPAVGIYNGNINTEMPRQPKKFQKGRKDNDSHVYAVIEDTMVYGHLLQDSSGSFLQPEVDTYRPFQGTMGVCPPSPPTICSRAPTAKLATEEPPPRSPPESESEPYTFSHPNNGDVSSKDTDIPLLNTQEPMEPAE

[2] = target: T2, extracellular-domain-(ECD)-comprising fragment of human CDCP1 of SEQ ID NO: 30 (human, UniProt Q9H5V8 30-663); experiment: SPR (Biacore T100), antibody captured, CDCP1 ECD as analyte, 25 C, Langmuir 1:1
T2 construct: also called CDCP1 ECD; CDCP1-ECD
T2 sequence: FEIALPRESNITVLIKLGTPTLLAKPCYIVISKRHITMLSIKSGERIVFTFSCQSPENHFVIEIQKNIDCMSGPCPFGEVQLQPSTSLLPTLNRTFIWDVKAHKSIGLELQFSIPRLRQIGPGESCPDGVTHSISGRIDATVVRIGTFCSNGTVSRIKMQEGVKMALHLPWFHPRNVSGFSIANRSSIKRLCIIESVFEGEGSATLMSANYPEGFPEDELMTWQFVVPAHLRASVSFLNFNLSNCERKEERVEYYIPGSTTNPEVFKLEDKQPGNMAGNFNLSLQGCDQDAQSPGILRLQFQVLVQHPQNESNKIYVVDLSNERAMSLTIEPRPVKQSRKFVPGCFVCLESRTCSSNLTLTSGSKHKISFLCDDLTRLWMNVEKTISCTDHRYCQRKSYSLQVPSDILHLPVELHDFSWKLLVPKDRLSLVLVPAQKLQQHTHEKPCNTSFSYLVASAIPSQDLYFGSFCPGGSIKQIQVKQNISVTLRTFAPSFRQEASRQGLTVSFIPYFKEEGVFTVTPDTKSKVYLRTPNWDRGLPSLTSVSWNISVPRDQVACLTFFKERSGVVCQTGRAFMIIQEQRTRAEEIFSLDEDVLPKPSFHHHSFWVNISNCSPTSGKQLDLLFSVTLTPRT
Procedure: After conjugation, different anti-CDCP1 antibodies were injected at 25° C. at a flow rate of 5 μL/min, followed by a dilution series (0 nM to 1000 nM) of CDCP1 ECD at 30 μL/min. As running buffer for the binding experiment PBS/0.1% BSA was used. The chip was then regenerated with a 60s pulse of 10 mM glycine-HCl, pH 2.0 solution.
Calculation of thermodynamic parameters (KD, binding constant) and kinetic parameters (kₒₙ rate, koff rate) were calculated using a Langmuir 1:1 binding model.

[3] = target: T3, Soluble CDCP1 extracellular domain (CDCP1-ECD) (SEQ ID NO:30) fused to Streptavidin Binding Protein (SBP) (human, UniProt Q9H5V8 30-663); experiment: ELISA on captured SBP-CDCP1-ECD, ratio relative to chimeric CUB4 (chHC4)
T3 construct: also called SBP-CDCP1-ECD
T3 sequence: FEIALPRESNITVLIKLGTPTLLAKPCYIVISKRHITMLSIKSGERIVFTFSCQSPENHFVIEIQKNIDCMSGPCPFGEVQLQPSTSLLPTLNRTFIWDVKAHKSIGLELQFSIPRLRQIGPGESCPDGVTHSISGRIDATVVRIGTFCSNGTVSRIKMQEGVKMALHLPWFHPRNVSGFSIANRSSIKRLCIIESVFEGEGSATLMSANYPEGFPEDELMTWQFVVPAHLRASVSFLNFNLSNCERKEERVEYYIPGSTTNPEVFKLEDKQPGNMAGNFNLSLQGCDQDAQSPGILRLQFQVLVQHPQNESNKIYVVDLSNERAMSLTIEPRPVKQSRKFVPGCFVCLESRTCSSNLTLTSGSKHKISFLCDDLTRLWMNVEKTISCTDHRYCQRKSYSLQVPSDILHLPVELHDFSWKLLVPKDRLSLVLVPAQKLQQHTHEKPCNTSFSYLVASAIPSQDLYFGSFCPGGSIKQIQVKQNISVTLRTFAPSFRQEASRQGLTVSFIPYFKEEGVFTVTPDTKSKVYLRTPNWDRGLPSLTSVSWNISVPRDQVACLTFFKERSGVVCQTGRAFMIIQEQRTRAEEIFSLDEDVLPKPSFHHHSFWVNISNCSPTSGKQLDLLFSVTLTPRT
In short: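 Streptavidin plates coated overnight at 2–8° C with SBP-CDCP1-ECD HEK293 supernatant (1:15–1:40). Antibodies, undiluted or 12-step dilution, bound 90 min at room temperature; HRP anti-human IgG 1 h, ABTS read at 405/492 nm, signal expressed relative to chimeric chHC4 reference.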

B1: chimeric (chHC4) CUB4 antibody comprising human constant region and mouse VH and VL (antibody, human IgG1, V domains shown)
VH: EVQLVESGGDLVKPGGSLKLSCAASGFTFNSYGMSWVRQTPDKRLEWVATISSGGSYTYYPDSVKGRFTISRDNAKNTLYLQMSSLKSEDTAMYYCARHPDYDGVWFAYWGQGTLVTVSA
VL: QIVLTQSPAIMSASPGEKVTMTCSVSSSVFYVHWYQQKSGTSPKRWIYDTSKLASGVPARFSGSGSGTSYSLTISSMEAEDAATYYCQQWNSNPPTFGGGTKLEIK
[1]
  Percent (%) stimulation of CDCP1 phosphorylation in DU-145 cells (Western blot, densitometry): 100%

B2: Humanized CUB4 Antibody No. 69 (antibody, IgG1, V domains shown)
VH: EVQLVESGGGLVQPGGSLRLSCAASGFTFNSYGMSWVRQAPGKGLEWVATISSGGSYKYYVDSVKGRFTISRDNAKNSLYLQMNSLRAEDTAVYYCARHPDYDGVWFAYWGQGTLVTVSS
VL: EIVLTQSPATLSLSPGERATMSCSVSSSVFYLHWYQQKPGQAPRLWIYDTSKLASGIPARFSGSGSGTDFTLTISSLEPEDFAVYYCQQWNSNPPTFGGGTKVEIK
notes: Human constant region; also called Antibody 69; hHC4-H / hLC-L2
[1]
  Percent (%) stimulation of CDCP1 phosphorylation in DU-145 cells (Western blot, densitometry): 112%
[2]
  Kd: 2.55 nM
  koff: 0.00052 s⁻¹
  kon: 210000 M⁻¹ s⁻¹
  t½ diss.: 22.1 min
[3]
  relative binding ratio: 0.69

B3: Humanized CUB4 Antibody No. 91 (antibody, IgG1, V domains shown)
VH: EVQLVESGGGLVQPGGSLRLSCAASGFTFNSYGMSWVRQAPGKGLEWVATISSGGSYKYYVDSVKGRFTISRDNAKNSLYLQMNSLRAEDTAVYYCARHPDYDGVWFAYWGQGTLVTVSS
VL: EIVLTQSPATLSLSPGERATLSCSVSSSVFYVHWYQQKPGQAPRLLIYDTSKLASGIPARFSGSGSGTDFTLTISSLEPEDFAVYYCQQWNSNPPTFGGGTKVEIK
notes: Only variable domains are tied to the antibody; Human constant region, preferably IgG1; also called hHC4-H / hLC-a
[2]
  Kd: 5.6 nM
  koff: 0.001 s⁻¹
  kon: 180000 M⁻¹ s⁻¹
  t½ diss.: 11.2 min
[3]
  relative binding ratio: 0.51

B4: Humanized CUB4 Antibody No. 102 (antibody, IgG1, V domains shown)
VH: EVQLVESGGGLVQPGGSLRLSCAASGFTFNSYGMSWVRQAPGKGLEWVATISSGGSYKYYVDSVKGRFTISRDNAKNSLYLQMNSLRAEDTAVYYCARHPDYDGVWFAYWGQGTLVTVSS
VL: EIVLTQSPATLSLSPGERATLSCSVSSSVFYVHWYQQKPGQAPRLLIYDTSKLASGIPARFSGSGSGTDYTLTISSLEPEDFAVYYCQQWNSNPPTFGGGTKVEIK
notes: Only variable domains are tied to the antibody; Human constant region, preferably IgG1; also called hHC4-H / hLC-b
[2]
  Kd: 5.4 nM
  koff: 0.0011 s⁻¹
  kon: 190000 M⁻¹ s⁻¹
  t½ diss.: 11 min
[3]
  relative binding ratio: 0.53

B5: hHC4-H / hLC4-d (antibody, V domains shown)
VH: EVQLVESGGGLVQPGGSLRLSCAASGFTFNSYGMSWVRQAPGKGLEWVATISSGGSYKYYVDSVKGRFTISRDNAKNSLYLQMNSLRAEDTAVYYCARHPDYDGVWFAYWGQGTLVTVSS
VL: EIVMTQSPATLSVSPGERATLSCSVSSSVFYVHWYQQKPGQAPRLLIYDTSKLASGIPARFSGSGSGTEYTLTISSLQSEDFAVYYCQQWNSNPPTFGGGTKVEIK
notes: also called Humanized CUB4 Antibody No. 124
[3]
  relative binding ratio: 0.34

B6: hHC4-04 / hLC4-d (antibody, V domains shown)
VH: EVQLLESGGGLVQPGGSLRLSCAASGFTFNSYGMSWVRQAPGKGLEWVSTISSGGSYTYYPDSVKGRFTISRDNSKNTLYLQMNSLRAEDTAVYYCARHPDYDGVWFAYWGQGTLVTVSS
VL: EIVMTQSPATLSVSPGERATLSCSVSSSVFYVHWYQQKPGQAPRLLIYDTSKLASGIPARFSGSGSGTEYTLTISSLQSEDFAVYYCQQWNSNPPTFGGGTKVEIK
[3]
  relative binding ratio: 0.41

B7: hHC4-d / hLC4-d (antibody, V domains shown)
VH: EVQLLESGGGLVQPGGSLRLSCAASGFTFNSYGMSWVRQAPGKGLEWVSTISSGGSYTYYPDSVKGRFTISRDNSKNTLYLQMNSLRAEDTAVYYCAKHPDYDGVWFAYWGQGTLVTVSS
VL: EIVMTQSPATLSVSPGERATLSCSVSSSVFYVHWYQQKPGQAPRLLIYDTSKLASGIPARFSGSGSGTEYTLTISSLQSEDFAVYYCQQWNSNPPTFGGGTKVEIK
[3]
  relative binding ratio: 0.41

B8: hHC4-07 / hLC4-d (antibody, V domains shown)
VH: EVQLLESGGGLVQPGGSLRLSCAASGFTFNSYAMSWVRQAPGKGLEWVSTISSGGSYTYYPDSVKGRFTISRDNSKNTLYLQMNSLRAEDTAVYYCAKHPDYDGVWFAYWGQGTLVTVSS
VL: EIVMTQSPATLSVSPGERATLSCSVSSSVFYVHWYQQKPGQAPRLLIYDTSKLASGIPARFSGSGSGTEYTLTISSLQSEDFAVYYCQQWNSNPPTFGGGTKVEIK
[3]
  relative binding ratio: 0.04

B9: hHC4-03 / hLC4-d (antibody, V domains shown)
VH: EVQLLESGGGLVQPGGSLRLSCAASGFTFNSYGMSWVRQAPGKGLEWVSAISSGGSYTYYPDSVKGRFTISRDNSKNTLYLQMNSLRAEDTAVYYCAKHPDYDGVWFAYWGQGTLVTVSS
VL: EIVMTQSPATLSVSPGERATLSCSVSSSVFYVHWYQQKPGQAPRLLIYDTSKLASGIPARFSGSGSGTEYTLTISSLQSEDFAVYYCQQWNSNPPTFGGGTKVEIK
[3]
  relative binding ratio: 0.07

B10: chHC4 / hLC4-f (antibody, V domains shown)
VH: EVQLVESGGDLVKPGGSLKLSCAASGFTFNSYGMSWVRQTPDKRLEWVATISSGGSYTYYPDSVKGRFTISRDNAKNTLYLQMSSLKSEDTAMYYCARHPDYDGVWFAYWGQGTLVTVSA
VL: DIQMTQSPSSLSASVGDRVTITCSVSSSVFYVHWYQQKPGKAPKLLIYDTSKLASGVPSRFSGSGSGTDYTFTISSLQPEDIATYYCQQWNSNPPTFGGGTKVEIK
[3]
  relative binding ratio: 0.24

B11: hHC4-b / hLC4-c (antibody, V domains shown)
VH: EVQLVESGGGLVKPGGSLRLSCAASGFTFNSYSMNWVRQAPGKGLEWVSSISSGGSYIYYADSVKGRFTISRDNAKNSLYLQMNSLRAEDTAVYYCARHPDYDGVWFAYWGQGTLVTVSS
VL: EIVMTQSPATLSVSPGERATLSCSVSSSVFYVHWYQQKPGQAPRLLIYDTSKLASGIPARFSGSGSGTEFTLTISSLQSEDFAVYYCQQWNSNPPTFGGGTKVEIK
[3]
  binding result: no binding

B12: hHC4-K / hLC4-d (antibody, V domains shown)
VH: EVQLVESGGGLVKPGGSLRLSCAASGFTFNSYGMSWVRQAPGKGLEWVSSISSGGSYIYYADSVKGRFTISRDNAKNSLYLQMNSLRAEDTAVYYCARHPDYDGVWFAYWGQGTLVTVSS
VL: EIVMTQSPATLSVSPGERATLSCSVSSSVFYVHWYQQKPGQAPRLLIYDTSKLASGIPARFSGSGSGTEYTLTISSLQSEDFAVYYCQQWNSNPPTFGGGTKVEIK
[3]
  binding result: no binding

B13: hHC4-b / hLC4-d (antibody, V domains shown)
VH: EVQLVESGGGLVKPGGSLRLSCAASGFTFNSYSMNWVRQAPGKGLEWVSSISSGGSYIYYADSVKGRFTISRDNAKNSLYLQMNSLRAEDTAVYYCARHPDYDGVWFAYWGQGTLVTVSS
VL: EIVMTQSPATLSVSPGERATLSCSVSSSVFYVHWYQQKPGQAPRLLIYDTSKLASGIPARFSGSGSGTEYTLTISSLQSEDFAVYYCQQWNSNPPTFGGGTKVEIK
[3]
  binding result: no binding

B14: chHC4 / hLC4-I (antibody, V domains shown)
VH: EVQLVESGGDLVKPGGSLKLSCAASGFTFNSYGMSWVRQTPDKRLEWVATISSGGSYTYYPDSVKGRFTISRDNAKNTLYLQMSSLKSEDTAMYYCARHPDYDGVWFAYWGQGTLVTVSA
VL: EIVMTQSPATLSLSPGERATLSCRASSSVFYLSWYQQKPGQAPRLWIYDTSKLASGIPARFSGSGSGTDFTLTISSLQPEDFAVYYCQQWNSNPPTFGGGTKVEIK
[3]
  binding result: no binding

Reference: patent publication US20110052582A1 (Hoffmann-La Roche, published 2011)
